The text below walks through data of patent publication US20210017281A1 (IMMUNEXT, published 2021).

The target of the test is T1, human VISTA (human, UniProt Q9H7M9 33-194, limits assumed).
T1 construct: The ELISA text says only recombinant VISTA; also called recombinant VISTA
The experiment in a line: method not stated (Table 1, column Kd, M).

Positions count from the first letter of the chain named.

B1: VSTB60 (antibody, V domains shown)
VH: QVQLVQSGSELKKPGASVKVSCKASGYTFTNYGMTWVRQAPGQGLEWMGWINTYTGESTYADDFKGRFVFSLDTSVSTAYLQICSLKAEDTAVYYCARDYYGIYVSAYWGQGTLVTVSS
VL: DIVMTQTPLSLSVTPGQPASISCRASESVDNYANSFMHWYLQKPGQSPQLLIYRASNLESGVPDRFSGSGSGTDFTLKISRVEAEDVGVYYCQQSHEDPYTFGQGTKLEIKR
In general, Kd refers to a measure of binding affinity in units of concentration. For B1, the Kd amounted to 0.356 nM. In other words, the sub-nanomolar range.

B2: INX900 | VSTB50 (antibody, V domains shown)
VH: B1 VH with M34L, T35N, T53P, S58P, D99E, Y100G, I103N, V105I, S106F, A107P
VL: DIVMTQTPLSLSVTPGQPASISCRASESVDTYANSLMHWYLQKPGQPPQLLIYRASNLESGVPDRFSGSGSGTDFTLKISRVEAEDVGVYYCQQTNEDPRTFGQGTKLEIK
notes: INX name = the VSTB variable regions with human IgG2 constant regions
Regarding B2, binding was put at a Kd of 0.632 nM. This Kd is about 1.8-fold higher than that of the molecule before.

B3: INX901 | VSTB56 (antibody, V domains shown)
VH: QVQLVQSGAEVKKPGASVKVSCKASGYTFTSYWLHWVRQAPGQGLEWMGYIIPNTLHTDYNQKFKDRVTMTRDTSTSTVYMELSSLRSEDTAVYYCARLDGDYDYALDYWGQGTLVTVSS
VL: DIVMTQTPLSLSVTPGQPASISCRASESVEYYGTSFMQWYLQKPGQPPQLLIYTASNVESGVPDRFSGSGSGTDFTLKISRVEAEDVGVYYCQQSRKVPYTFGQGTKLEIK
notes: INX name = the VSTB variable regions with native human IgG2 constant regions; also called INX901 parental
The molecule B3 gave a Kd of 0.0235 nM.

B4: INX906 | VSTB54 (antibody, V domains shown)
VH: QVQLVQSGAEVKKPGASVKVSCKASGYNIKDTYMHWVRQAPGQGLEWMGRIDPTHGYVIYDPKFQGRVTMTRDTSTSTVYMELSSLRSEDTAVYYCARDRFDPYWFLDVWGQGTLVTVSS
VL: B3 VL with F36L, P47S, T54D, S56F, Y100W
notes: as for B2
The molecule B4 yielded a Kd of 0.0253 nM.

B5: INX902 | VSTB63 (antibody, V domains shown)
VH: QVQLQESGPGLVKPSETLSLTCAVSGFSITSDFAWNWIRQPPGKGLEWIGYITYSGFTNYNPSLESRVTISVDTSKNQFSLKLSSVTAADTAVYYCARQEYGNYVWYFDVWGQGTLVTVSS
VL: B3 VL with F36L, M37L, T54A, Y100W
notes: as for B2
B5 came in with a Kd of 0.83 nM.

B6: INX907 | VSTB66 (antibody, V domains shown)
VH: QVQLVQSGAEVKKPGASVKVSCKASGYPFTGYFMHWVRQAPGQGLEWMGRINPYNGGTVYNQNFNDRVTMTRDTSTSTVYMELSSLRSEDTAVYYCARWTFDGLFMDYWGQGTTVTVSS
VL: DVVMTQSPLSLPVTLGQPASISCRASENVDKYGISFMNWFQQRPGQSPRRLIYATSNQGSGVPDRFSGSGSGTDFTLKISRVEAEDVGVYYCQQSKEDPYTFGQGTKLEIK
notes: as for B2
B6 gave a Kd of 0.0806 nM.

B7: INX908 | VSTB92 (antibody, V domains shown)
VH: QVQLVQSGAEVKKPGASVKVSCKASGYTFANYLIGWVRQAPGQRLEWMGDIYPGGGFISYNEKFKGRVTITRDTSASTAYMELSSLRSEDTAVYYCARRFDYGGYFFDYWGQGTLVTVSS
VL: DIVMTQSPLSLPVTPGEPASISCRSSQSIVHSNGNIYLEWYLQKPGQSPQLLIYKVSNRFSGVPDRFSGSGSGTDFTLKISRVEAEDVGVYYCFQGSHVPWTFGQGTKLEIK
notes: INX name = the VSTB variable regions with human IgG2 constant regions; also called INX908 parental
On to B7, for which binding was characterised by a dissociation constant (Kd) of 0.0934 nM. This Kd and that of the molecule before are within 1.5-fold of each other.

B8: VSTB74 (antibody, V domains shown)
VH: QMQLVQSGPEVKKPGTSVKVSCKASGYIFTDYNIDWVRQARGQRLEWIGDINPKYDSTRYNQKFKGRVTITRDMSTSTAYMELSSLRSEDTAVYYCAADGSSAMDYWGQGTTVTVSS
VL: DIVMTQSPDSLAVSLGERATINCKSSQSLLNSGHQKNYLAWYQQKPGQPPKLLIYGASTRESGVPDRFSGSGSGTDFTLTISSLQAEDVAVYYCQNDHRYPLTFGQGTKLEIKR
In the case of B8, the Kd stood at 0.562 nM. Against the preceding molecule, the Kd is about 6-fold higher.

B9: VSTB78 (antibody, V domains shown)
VH: QVQLVQSGAEVKKPGASVKVSCKASGYTFTNYWMHWVRQAPGQGLEWMGYINPSSGYTEYNQKFKDRVTMTRDTSTSTVYMELSSLRSEDTAVYYCARDGGSVLFGYWGQGTTVTVSS
VL: DIVMTQSPDSLAVSLGERATINCKSSQSLLNSGIRKNYLAWYQQKPGQPPKLLIYSASTRESGVPDRFSGSGSGTDFTLTISSLQAEDVAVYYCKQSYNLYTFGQGTKLEIKR
Consider B9, for which binding was characterised by a dissociation constant (Kd) of 1.13 nM.
